Test results from publication PMC10858898.
Several values for one entry are separate records, joined by “and”; a condition that tells them apart may be missing. Identical values can stand only once.

Assays:
[1] = molecular target: MprE7-TH1 chimeric proteusin peptide; test: NMR titration; unlabeled SrpI titrated into 42.1 µM 15N-MprE7-TH1, MprE7-TH1:SrpI molar ratios 1:0 to 1:1, FAD 1:1 with SrpI; 100 mM NaCl, 20 mM sodium phosphate pH 7.5, 10% D2O; 25 °C, 800 MHz; TITAN 2D lineshape analysis with a two-state binding model; apparent KD; fits of subsets of the seven residues
[2] = molecular target: MprE7-TH1 chimeric proteusin peptide; test: NMR titration; unlabeled SrpI titrated into 42.1 uM 15N-labeled MprE7-TH1, MprE7-TH1:SrpI molar ratios 1:0 to 1:1, FAD at 1:1 with SrpI; 100 mM NaCl, 20 mM sodium phosphate pH 7.5, 10% D2O, 25 °C; TITAN 2D lineshape analysis, two-state binding model; apparent

Substance	Kd [1]	Kd [2] [µM]	koff [2] [s⁻¹]
SrpI brominase (enzyme)	21.9 µM and 36.9 µM and 22 µM		
SrpI brominase (flavin-dependent RiPP halogenase) (enzyme)		24.9	3.7
